# Data published in patent US20140147453.
# Residue numbers refer to the chain shown, from its start.
# T1: MFK24 peptide (mdhFas-1-GPQGIAG-QERGDSLA) (UniProt P82198)
# T1 sequence: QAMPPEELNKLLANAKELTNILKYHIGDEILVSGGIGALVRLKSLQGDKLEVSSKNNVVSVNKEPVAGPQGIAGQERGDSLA
# T2: MFK25 peptide (mdhFas-1-GPLGIAG-QERGDSLA) (UniProt P82198)
# T2 sequence: T1 sequence with Q70L
# T3: MFK23 peptide (mdhFas-1-GPLGVRG-QERGDSLA) (UniProt P82198)
# T3 sequence: T1 sequence with Q70L, I72V, A73R
# T4: MFK24 peptide (mdhFas-1-GPQGIAG-QERGDSLA), P82198
# T4 chain: T1 sequence
# B1: cathepsin K (enzyme, UniProt P43235 115-329, looked up, species assumed)
# Cathepsin K: APDSVDYRKKGYVTPVKNQGQCGSCWAFSSVGALEGQLKKKTGKLLNLSPQNLVDCVSENDGCGGGYMTNAFQYVQKNRGIDSEDAYPYVGQEESCMYNPTGKAAKCRGYREIPEGNEKALKRAVARVGPVSVAIDASLTSFQFYSKGVYYDESCNSDNLNHAVLAVGYGIQKGNKHWIIKNSWGENWGNKGYILMARNKNNACGIANLASFPKM
# B2: MMP-1 secreted from a human Synovial membrane cell (human FLS stimulated with IL-1β) (protein)
# chain: FPATLETQEQDVDLVQKYLEKYYNLKNDGRQVEKRRNSGPVVEKLKQMQEFFGLKVTGKPDAETLKVMKQPRCGVPDVAQFVLTEGNPRWEQTHLTYRIENYTPDLPRADVDHAIEKAFQLWSNVTPLTFTKVSEGQADIMISFVRGDHRDNSPFDGPGGNLAHAFQPGPGIGGDAHFDEDERWTNNFREYNLHRVAAHELGHSLGLSHSTDIGALMYPSYTFSGDVQLAQDDIDGIQAIYGRSQNPVQPIGPQTPKACDSKLTFDAITTIRGEVMFFKDRFYMRTNPFYPEVELNFISVFWPQLPNGLEAAYEFADRDEVRFFKGNKYWAVQGQNVLHGYPKDIYSSFGFPRTVKHIDAALSEENTGKTYFFVANKYWRYDEYKRSMDPGYPKMIAHDFPGIGHKVDAVFMKDGFFYFFHGTRQYKFDPKTKRILTLQKANSWFNCRKN
# How the values were obtained:
# [1] = target: T1, MFK24 peptide (mdhFas-1-GPQGIAG-QERGDSLA)
# [2] = target: T2, MFK25 peptide (mdhFas-1-GPLGIAG-QERGDSLA)
# [3] = target: T3, MFK23 peptide (mdhFas-1-GPLGVRG-QERGDSLA)
# [4] = target: T4, MFK24 peptide …
Molecule,enzymatic digestion test (immunoblot with anti-Histidine or anti-Bigh3) [1],enzymatic digestion test (immunoblot with anti-Histidine or anti-Bigh3) [2],enzymatic digestion test (immunoblot with anti-Histidine or anti-Bigh3) [3],"culture analysis of enzymatic digestion (human FLS + IL-1β, 1 uM peptide, 3 and 6 hours; immunoblot anti-histidine versus anti-βig-h3) [4]"
MMP-1 (matrix metalloproteinase 1),MFK24 was concentration-dependently cleaved through treatment with MMP-1,"MFK25 was concentration-dependently cleaved through treatment with MMP-1, MMP-2 and MMP-3, and especially, well cleaved by MMP-1 and MMP-3",–,–
MMP-2 (matrix metalloproteinase 2),–,"MFK25 was concentration-dependently cleaved through treatment with MMP-1, MMP-2 and MMP-3",MFK23 was concentration-dependently cleaved through treatment with MMP-2,–
MMP-3 (matrix metalloproteinase 3),–,"MFK25 was concentration-dependently cleaved through treatment with MMP-1, MMP-2 and MMP-3, and especially, well cleaved by MMP-1 and MMP-3",–,–
cathepsin D,–,"MFK25 was not cleaved through treatment with cathepsin K, L or D","MFK23 was not cleaved through treatment with cathepsin K, L or D",–
cathepsin L,–,"MFK25 was not cleaved through treatment with cathepsin K, L or D","MFK23 was not cleaved through treatment with cathepsin K, L or D",–
B1,–,"MFK25 was not cleaved through treatment with cathepsin K, L or D","MFK23 was not cleaved through treatment with cathepsin K, L or D",–
B2,–,–,–,"in the use of the anti-histidine antibody, MFK24 was measured in a smaller amount than that in the use of the anti-βig-h3 antibody"
